{"source": "patent US20050181450A1", "about": "“Novel inositol 1,4,5-trisphosphate (IP3) receptor-binding protein and an IP3 indicator” (priority 2002, published 2005)", "molecules": {"B1": {"name": "IRBIT: novel IP3 receptor-binding protein of 530 amino acids, SEQ ID NO: 1 (protein, listed as Mus musculus)", "chain": "MSMPDAMPLPGVGEELKQAKEIEDAEKYSFMATVTKAPKKQIQFADDMQEFTKFPTKTGRRSLSRSISQSSTDSYSSAASYTDSSDDEVSPREKQQTNSKGSSNFCVKNIKQAEFGRREIEIAEQDMSALISLRKRAQGEKPLAGAKIVGCTHITAQTAVLIETLCALGAQCRWSACNIYSTQNEVAAALAEAGVAVFAWKGESEDDFWWCIDRCVNMDGWQANMILDDGGDLTHWVYKKYPNVFKKIRGIVEESVTGVHRLYQLSKAGKLCVPAMNVNDSVTKQKFDNLYCCRESILDGLKRTTDVMFGGKQVVVCGYGEVGKGCCAALKALGAIVYITEIDPICALQACMDGFRVVKLNEVIRQVDVVITCTGNKNVVTREHLDRMKNSCIVCNMGHSNTEIDVTSLRTPELTWERVRSQVDHVIWPDGKRVVLLAEGRLLNLSCSTVPTFVLSITATTQALALIELYNAPEGRYKQDVYLLPKKMDEYVASLHLPSFDAHLTELTDDQAKYLGLNKNGPFKPNYYRY"}}, "key": {"[1]": {"target": "T1, type II phosphatidylinositol phosphate kinase α (Homo sapiens, UniProt P48426)", "T1 construct": "expressed in transfected cells; host or cells: Cos-7", "T1 sequence (P48426 1-406)": "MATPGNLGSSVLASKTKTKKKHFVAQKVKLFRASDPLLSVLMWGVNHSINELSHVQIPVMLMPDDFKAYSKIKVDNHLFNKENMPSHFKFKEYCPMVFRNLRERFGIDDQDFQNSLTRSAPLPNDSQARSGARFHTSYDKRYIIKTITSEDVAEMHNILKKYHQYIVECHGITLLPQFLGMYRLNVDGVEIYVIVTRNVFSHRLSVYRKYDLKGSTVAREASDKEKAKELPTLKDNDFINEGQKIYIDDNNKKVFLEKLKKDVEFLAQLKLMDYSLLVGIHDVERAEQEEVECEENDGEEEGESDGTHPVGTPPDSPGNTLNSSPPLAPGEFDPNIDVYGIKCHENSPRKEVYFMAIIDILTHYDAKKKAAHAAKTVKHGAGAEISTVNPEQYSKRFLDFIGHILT", "assay": "Co-immunoprecipitation in Cos-7 cells with Myc-PIPKII α", "format": "binding", "conditions": "overexpressing Cos-7 cells", "method": "(§1) (A and B) IRBIT was transfected into Cos-7 cells with Myc-tagged type II phosphatidylinositol phosphate kinase α, β or γ (PIPKII α, β or γ). After two days, cells were lysed in lysis buffer, followed by centrifugation (100,000×g, 30 min). The supernatants were incubated with 3 μg of anti-IRBIT antibody, rabbit IgG, mouse anti-Myc antibody, or mouse IgG for 1 h at 4° C. After adding 5 μl of Protein G beads and another 1-h incubation, the beads were washed five times with lysis buffer and analyzed by Western blotting with anti-IRBIT antibody or HRP conjugated anti-Myc antibody. Immunoprecipitation of Myc-PIPKII α, β or γ with anti-Myc antibody co-precipitated IRBIT (A). In the reciprocal experiments, immunoprecipitation of IRBIT with anti-IRBIT antibody precipitated Myc-PIPKII α, β or γ.\nas §1, with “IRBIT” for “(A and B) IRBIT”, “antibody.” for “antibody. Immunoprecipitation of Myc-PIPKII α, β or γ with anti-Myc antibody co-precipitated IRBIT (A). In the reciprocal experiments, immunoprecipitation of IRBIT with anti-IRBIT antibody precipitated Myc-PIPKII α, β or γ.”"}, "GST-EL (IP3R)": {"target": "T2, GST-EL (IP3R) (Mus musculus, UniProt P11881, N1264K)", "T2 construct": "construct a GST-IP3R1 (1-2217) vector (termed GST-EL); made in house; host or cells: GST-EL: Sf9 cells; His-IRBIT: Sf9 cells or E. coli", "T2 sequence (P11881 1-2217 N1264K)": "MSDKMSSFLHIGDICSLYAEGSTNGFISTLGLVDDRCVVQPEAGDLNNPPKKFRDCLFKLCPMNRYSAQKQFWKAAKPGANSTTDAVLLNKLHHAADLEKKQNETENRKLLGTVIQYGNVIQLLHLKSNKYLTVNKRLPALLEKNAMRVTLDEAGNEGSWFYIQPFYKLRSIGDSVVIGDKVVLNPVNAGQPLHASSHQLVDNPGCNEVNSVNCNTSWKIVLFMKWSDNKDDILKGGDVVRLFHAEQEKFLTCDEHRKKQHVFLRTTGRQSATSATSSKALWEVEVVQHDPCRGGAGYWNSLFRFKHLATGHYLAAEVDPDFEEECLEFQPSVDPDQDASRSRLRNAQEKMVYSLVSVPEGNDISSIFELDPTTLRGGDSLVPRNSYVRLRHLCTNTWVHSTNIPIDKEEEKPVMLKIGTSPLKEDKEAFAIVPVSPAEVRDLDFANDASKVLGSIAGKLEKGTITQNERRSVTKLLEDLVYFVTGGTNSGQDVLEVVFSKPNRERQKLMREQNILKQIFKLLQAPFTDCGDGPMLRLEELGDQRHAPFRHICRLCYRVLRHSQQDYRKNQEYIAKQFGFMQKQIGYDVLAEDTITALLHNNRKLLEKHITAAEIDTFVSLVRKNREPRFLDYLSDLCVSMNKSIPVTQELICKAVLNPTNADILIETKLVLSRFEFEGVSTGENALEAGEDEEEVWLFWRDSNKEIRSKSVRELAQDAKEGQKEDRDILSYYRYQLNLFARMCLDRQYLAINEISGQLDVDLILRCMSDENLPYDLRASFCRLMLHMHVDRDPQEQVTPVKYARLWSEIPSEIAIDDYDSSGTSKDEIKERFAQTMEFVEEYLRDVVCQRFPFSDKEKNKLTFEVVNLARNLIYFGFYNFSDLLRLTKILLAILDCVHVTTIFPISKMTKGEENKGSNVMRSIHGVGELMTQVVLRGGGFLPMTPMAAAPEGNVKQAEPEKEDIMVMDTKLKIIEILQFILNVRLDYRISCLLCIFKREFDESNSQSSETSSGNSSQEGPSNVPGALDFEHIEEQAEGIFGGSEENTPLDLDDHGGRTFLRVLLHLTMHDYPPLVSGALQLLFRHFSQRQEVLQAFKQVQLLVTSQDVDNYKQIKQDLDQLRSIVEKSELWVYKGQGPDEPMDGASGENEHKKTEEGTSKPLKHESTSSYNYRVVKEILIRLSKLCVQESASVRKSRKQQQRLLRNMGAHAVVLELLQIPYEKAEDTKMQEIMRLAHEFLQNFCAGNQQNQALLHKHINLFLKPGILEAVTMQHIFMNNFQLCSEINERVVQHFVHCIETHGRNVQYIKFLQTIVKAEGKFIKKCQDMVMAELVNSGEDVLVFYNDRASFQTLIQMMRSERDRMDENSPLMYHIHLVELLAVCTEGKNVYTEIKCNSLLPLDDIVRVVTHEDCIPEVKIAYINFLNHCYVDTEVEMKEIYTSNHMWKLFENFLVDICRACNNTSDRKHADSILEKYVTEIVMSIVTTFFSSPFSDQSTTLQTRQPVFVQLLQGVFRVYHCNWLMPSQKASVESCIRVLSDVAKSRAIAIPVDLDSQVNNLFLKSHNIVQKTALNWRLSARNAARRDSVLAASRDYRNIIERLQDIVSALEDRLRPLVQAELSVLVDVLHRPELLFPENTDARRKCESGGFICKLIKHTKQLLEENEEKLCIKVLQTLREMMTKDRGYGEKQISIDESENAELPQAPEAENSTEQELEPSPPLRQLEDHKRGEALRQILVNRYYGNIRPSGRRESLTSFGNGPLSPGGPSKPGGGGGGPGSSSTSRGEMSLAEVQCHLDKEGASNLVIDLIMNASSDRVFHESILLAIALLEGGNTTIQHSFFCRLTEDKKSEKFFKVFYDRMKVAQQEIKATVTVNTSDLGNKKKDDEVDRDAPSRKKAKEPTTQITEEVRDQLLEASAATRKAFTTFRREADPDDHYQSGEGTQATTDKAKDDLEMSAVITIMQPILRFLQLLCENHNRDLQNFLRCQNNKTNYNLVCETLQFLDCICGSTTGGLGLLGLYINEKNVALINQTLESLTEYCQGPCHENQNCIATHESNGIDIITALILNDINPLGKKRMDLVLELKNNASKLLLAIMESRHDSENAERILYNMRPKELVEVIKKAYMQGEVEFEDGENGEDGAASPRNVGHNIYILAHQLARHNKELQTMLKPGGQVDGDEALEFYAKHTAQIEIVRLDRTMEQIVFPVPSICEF", "assay": "[3H]IP3 binding to GST-EL", "conditions": "IRBIT treated with alkaline phosphatase", "method": "(A) 0.2 μg of GST-EL was incubated with 0.1, 1, or 10 μg of purified His-tagged IRBIT expressed in Sf9 cells or E. coli in a solution containing 50 mM Tris-HCl (pH 8.0), 1 mM EDTA, and 1 mM 2-mercaptoethanol, for 30 min on ice. Then 8.7 nM [^3H]IP3 (PerkinElmer Life Sciences) was added to the samples and incubated for 10 min on ice (total volume was 50 μl). The samples were mixed with 2 μl of 50 mg/ml γ-globulin and 50 μl of 30% PEG6000, 50 mM Tris-HCl (pH 8.0), and incubated for 5 min on ice. Non-specific binding was measured in the presence of 10 μM cold IP3. After centrifugation at 20,000×g for 5 min, the precipitate was dissolved in SOLVABLE™ (Packard) and the radioactivity was measured with a liquid scintillation counter (Beckman Coulter). Results are shown as the mean±S.D. from three independent experiments. (B) Purified His-IRBIT expressed in Sf9 cells was incubated with alkaline phosphatase for 30 min at 37° C. prior to the IP3 binding assay described as in (A). (C and D) Scatchard analysis. 0.1 μg of GST-EL was incubated with or without 1 μg of purified His-tagged IRBIT expressed in Sf9 cells as described in (A). Then 2.17 nM [^3H]IP3 and 2-500 nM cold IP3 were added to the samples and incubated for 10 min on ice (total volume was 100 μl). Non-specific binding was measured in the presence of 10 μM cold IP3. [^3H]IP3 binding to GST-EL was measured as described in (A).\nThe effect of IRBIT on binding of IP3 to IP3R was examined. GST-EL (0.2 μg) was incubated with 0.1, 1, or 10 μg of purified His-tagged IRBIT expressed in Sf9 cells or E. coli in a solution containing 50 mM Tris-HCl (pH 8.0), 1 mM EDTA, and 1 mM 2-mercaptoethanol, for 30 min on ice. Then 8.7 nM [^3H]IP3 (PerkinElmer Life Sciences) was added to the samples and incubated for 10 min on ice (total volume was 50 μl). The samples were mixed with 2 μl of 50 mg/ml γ-globulin and 50 μl of 30% PEG6000, 50 mM Tris-HCl (pH 8.0), and incubated for 5 min on ice. Non-specific binding was measured in the presence of 10 μM cold IP3. After centrifugation at 20,000×g for 5 min, the precipitate was dissolved in SOLVABLE™ (Packard) and the radioactivity was measured with a liquid scintillation counter (Beckman Coulter). […] 0.1 μg of GST-EL was incubated with or without 1 μg of purified His-tagged IRBIT expressed in Sf9 cells as described in (A). Then 2.17 nM [^3H]IP3 and 2-500 nM cold IP3 were added to the samples and incubated for 10 min on ice (total volume was 100 μl). Non-specific binding was measured in the presence of 10 μM cold IP3. [^3H]IP3 binding to GST-EL was measured as described in (A). […] Bmax was not changed."}}, "data": [{"molecule": "B1", "values": [{"measurement": "interaction with PIPKII α", "setting": "[1]", "value": "interacted"}, {"measurement": "effect on IP3 binding of GST-EL after dephosphorylation", "setting": "GST-EL (IP3R)", "value": "reduced effect"}]}]}
